Results reported in the supplement of paper PMC9170038.

Columns and labels:
MS2 coat protein [1] = assay: apparent KD of MS2 coat protein, switch ON state; designed switch direction (-1 OFF switch, 1 ON switch): -1; higher = weaker reporter binding; conditions: FMN input: 0 or 200 uM; Eterna round: R93 (includes R88 designs)
Summary of the method: (§1)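 The buffer was 100 mM Tris-HCl pH 7.5 with 80 mM KCl and 4 mM MgCl2, used without or with constant ligand. In it, RNA switches transcribed on-chip from Illumina sequencing clusters were titrated with SNAP-549-labelled MS2 coat protein in twofold steps from 0.7 or 1.5 nM to 3 µM. Apparent KD for each design is the median of its normalised cluster binding-curve fits.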

MS2 coat protein [2] = assay: apparent KD of MS2 coat protein, switch OFF state (with FMN for OFF switches, without FMN for ON switches); designed switch direction (-1 OFF switch, 1 ON switch): -1; higher = weaker reporter binding; conditions: FMN input: 0 or 200 uM; Eterna round: R93 (includes R88 designs)
Summary of the method: as §1

Sequence | apparent KD of MS2 coat protein (MS2 coat protein [1]) | apparent KD of MS2 coat protein (MS2 coat protein [2])
AAGAAGUGAGGAUAUGGAAAAGAAAAGAAAAGAAAAGAAAACCAGAAGGCACAUGAGGAUCACCCAUGUAAGAA [Artabanus the Hyrcanian] | 0.0295 µM | 0.028 µM
AAGAAGUGAGGAUAUGUCUGUGCGAAAAAAAAAAAGUGCAGACAGAAGGCACAUGAGGAUCACCCAUGUGAAAA [Florian 65% 4] | 0.0219 µM | 0.0267 µM
AAGAAGUUAGGAUAUACAAGAAAGAAAGAAAAGAAAAGAAAACAUGAGGAUCACCCAUGUAGAAGGAACUAGAA [EteRNA is fun!] | 0.0268 µM | 0.0196 µM
AAGAAUCGAGGAUAUACAUGAGGAUCACCCAUGUAAAAGAAAGAAAAGGGAAAGAAAAGUAGAAGGCGAAAGAA [Userkhaure Setnakht] | 0.0328 µM | 0.0353 µM
AAGAGGCUAGGAUAUACACAUCUGAUGACUCAACCUAAAACACAUGAGGAUCACCCAUGUAGAAGGAGCGAAAG [Qucequor] | 0.0202 µM | 0.017 µM
AAGAUGUUAGGAUAUGCUGCUCGUCACAAAAGUGAUGAGUAGCAGAAGGGACAUGAGGAUCACCCAUGUAAAGA [JL eternac mod 6] | 0.0455 µM | 0.0348 µM
AAGCUGGUAGGAUAUACUAGGGCGACUAAUGCGCCGAUAGGACAUGAGGAUCACCCAUGUAGAAGGGCCAGAAA [JR_Exc002_Sub406] | 0.187 µM | 0.07 µM
AAGGAGUGAGGAUAUACAUGAGGAUCACCCAUGUUGAUGGAAACGUCAGAGAAAGAAGGUAGAAGGCACAAGAA [JR_Exclusion3_Sub6] | 0.0512 µM | 0.0541 µM
AAGGGACAUGAGGAUCACCCAUGUAAGGAUAUGCUAUGGAAAAUAAAAAUAAAACAUAGCAGAAGGUACAAAAA [Denovo 15] | 0.124 µM | 0.135 µM
AAGGGACAUGAGGAUCACCCAUGUCAGGAUAUGAUGCGAAUAAAGAAAGAAUAAAGCAUCAGAAGGGACACCAA [Mat - Exclusion 1 - Eli mod - D64] | 0.023 µM | 0.0446 µM
AAGGGACAUGAGGAUCACCCAUGUCAGGAUAUGCUAUGGAAAAUAAAAAUAAAACAUAGCAGAAGGGACACCAA [64%, Meechl, 3] | 0.0259 µM | 0.0403 µM
AAUAAACAUGAGGAUCACCCAUGUAAGGAUAUCGAAAAAAAAAUAAACAAAAAAAAAACGAGAAGGUACAAAAA [Exclusion 1 design 2] | 0.0241 µM | 0.027 µM
AAUAAACAUGAGGAUCACCCAUGUCAGGAUAUGCAUCUAACAUAAUAACAUAAAUACAGCAGAAGGGACUAAUA [JR_Exc001_Sub601] | 0.0303 µM | 0.0206 µM
AAUCCACAUGAGGAUCACCCAUGUGAGGAUAUCGUGCAGAAAAAAAAAAAAAACUGCACGAGAAGGCACAUGGA | 0.0351 µM | 0.0202 µM
ACAAAUGUAGGAUAUACAUGAGGAUCACCCAUGUGGCACAAACAGCAAACAAGACAAAGUAGAAGGACAACGAC [JR_Exc003-Sub901] | 0.0249 µM | 0.0284 µM
ACAGCGUGAGGAUAUACAUGAGGAUCACCCAUGUGAAACAGGAAAAACUGAAAGACAUGUAGAAGGCACGCUGA [Exclusion 3.3 (Janderson's 'Tweaking Eli' some more )] | 0.263 µM | 0.0287 µM
ACAGUUACAGGAUAUACAUGGAAAAAUAAAAAUAAAAAACUACAUGAGGAUCACCCAUGUAGAAGGGUAACUGA [Ex2 Design 197: Random 12F] | 0.0429 µM | 0.0869 µM
ACCUAGUCAGGAUAUACAAACAUGUCAAAAGACGUGAAAAAACAUGAGGAUCACCCAUGUAGAAGGGACUAGGA [Mat - Exclusion 2 - JL mod - D22] | 0.0205 µM | 0.0197 µM
ACGUAGAGAGGAUAUACGAACAUGUCAAAAGACGUGAAGGGACAUGAGGAUCACCCAUGUAGAAGGCUCUACGA [Mat - Exclusion 2 - JL mod - D8] | 0.0548 µM | 0.172 µM
ACUAAACGAGGAUAUACUGACAAACCUCAAACAUACAUCAAACAUGAGGAUCACCCAUGUAGAAGGCGUAAACU [JR_Exc002_Sub401] | 0.0376 µM | 0.0196 µM
ACUAGUACAGGAUAUACAUGAGGAUCACCCAUGUGAGAAUUAAGUGGCGUACCACAAAGUAGAAGGGUACUAGA [Mat - Exclusion 3 - JL mod - D14] | 0.0343 µM | 0.152 µM
AGAAAACAUGAGGAUCACCCAUGUCAGGAUAUACAAAAUAAAAUAAAAAUAAAAUAAAGUAGAAGGGACAAAGA [Mat - Same state - Mayanna Mod - D109] | 0.0335 µM | 0.0427 µM

Sequence | apparent KD of MS2 coat protein (MS2 coat protein [1]) | apparent KD of MS2 coat protein (MS2 coat protein [2])
AGAAAACAUGAGGAUCACCCAUGUGAGGAUAUCGAUGUCCAAAAAAAAGUGCGGGACUCGAGAAGGCACUUGGA [Erbelaed] | 0.0466 µM | 0.0325 µM
AGAAAGUCAGGAUAUGCAGAAAAAAAAACGAAAAAAAAACUGCAGAAGGGACAUGAGGAUCACCCAUGUUAAAG [Mat - Exclusion 4 - Mayanna - D129] | 0.0466 µM | 0.0349 µM
AGAAAGUUAGGAUAUACAGAUAAAAAAACGAAAAAAAAUCUGUAGAAGGAACAUGAGGAUCACCCAUGUAAAGA [Mat - Exclusion 4 - Mayanna - D105] | 0.0287 µM | 0.0232 µM
AGAAUACAUGAGGAUCACCCAUGUGAGGAUAUCCAAAGAAAAAGAAAAGAAAAGAAAAGGAGAAGGCACAAAAG [EX 1 May 13] | 0.0787 µM | 0.0673 µM
AGAAUACAUGAGGAUCACCCAUGUGAGGAUAUGCAAAUAAAAAUAAAAUAAAAUAAAUGCAGAAGGCACGAAAG [EX 1 May 22] | 0.0359 µM | 0.0582 µM
AGAUAGUCAGGAUAUACGAACAAGAAAAAAGACGAGAACGGACAUGAGGAUCACCCAUGUAGAAGGGACUAGCA [Diamond 10] | 0.0356 µM | 0.0302 µM
AGAUGACAAGGAUAUACUAGGGAUGAUAGUAGAGAAGAAGAACAUGAGGAUCACCCAUGUAGAAGGUGUAAGAA [JR_Exc002_Sub1702] | 0.07 µM | 0.0611 µM
AGCUAGUCAGGAUAUACAAACAUGUCAAAAGACGUGAAGGAACAUGAGGAUCACCCAUGUAGAAGGGACUAGCA [Web Mod 74% 3] | 0.021 µM | 0.0195 µM
AGCUAGUCAGGAUAUACGAACACGUCAAAAGACGUGAAGGGACAUGAGGAUCACCCAUGUAGAAGGGACUAGCA [Mat - Exclusion 2 - JL mod - D24] | 0.0298 µM | 0.114 µM
AGCUAGUCAGGAUAUACGAACAGGUCAAAAGACGUGAAGGGACAUGAGGAUCACCCAUGUAGAAGGGACUAGCA [Mat - Exclusion 2 - JL mod - D23] | 0.0396 µM | 0.116 µM
AGCUAGUCAGGAUAUACGAACAGGUGAAAAGACGUAAGGGAACAUGAGGAUCACCCAUGUAGAAGGGACUAGCA [Diamond 53] | 0.0913 µM | 0.0993 µM
AGCUAGUCAGGAUAUACGAACAUGUCAAAAGACGUGAAAUAACAUGAGGAUCACCCAUGUAGAAGGGACUAGCA [Mat - Exclusion 2 - JL-Eli mod - D52] | 0.0174 µM | 0.0155 µM
AGCUAGUCAGGAUAUACGAGAAAGAAAGAAGAAGUGAAGGGACAUGAGGAUCACCCAUGUAGAAGGGACUAGCA [Diamond 27] | 0.0519 µM | 0.16 µM
AGGAAACAUGAGGAUCACCCAUGUCAGGAUAUUGGAAAGAAAAGAAAAGAAAGAAGAAUAAGAAGGGACAAGAA [Hor-Aha] | 0.0387 µM | 0.0251 µM
AGGAAACAUGAGGAUCACCCAUGUGAGGAUAUACAAAAGAAAAGAAAAGAAAGAAGAAGUAGAAGGCACAAGAA [Thesh] | 0.0262 µM | 0.0295 µM
AGGUGGUCAGGAUAUGCGUGAAGAAUAAAACAAAUAACAACGCAGAAGGGACAUGAGGAUCACCCAUGUCACCA [May 52] | 0.0207 µM | 0.0166 µM
AGUAGAUCAGGAUAUACAUAAAUGAUAAUUAUGUAAUUUCUACAUGAGGAUCACCCAUGUAGAAGGGAUCUACA [Ex2 Design 136: Not so Super Stable 24] | 0.0144 µM | 0.0152 µM
AGUAGAUCAGGAUAUACAUGAAAGAUCAAAAUGUCCAAUAUACAUGAGGAUCACCCAUGUAGAAGGGAUCUACA [Ex2 Design 115: Not so Super Stable 2] | 0.0999 µM | 0.0505 µM
AGUAGUACAGGAUAUACAUGAGGAUCACCCAUGUGAAAAUUAAGUGGCGUACCACAAAGUAGAAGGGUACUACA [Mat - Exclusion 3 - JL mod - D36] | 0.031 µM | 0.148 µM
AGUCAUACAGGAUAUACAUGAGGAUCACCCAUGUUUAUCCUAAAAUAAAAAAACUCAUGUAGAAGGGUAUGACA [EX3 214: Super Stable 14] | 0.013 µM | 0.0313 µM
AGUCUGAGAGGAUAUACAUAGGAAAAAAAAGUCAGAUCCCUACAUGAGGAUCACCCAUGUAGAAGGCUCUGACA [Ex2 Design 148: Sub-opt 12] | 0.0139 µM | 0.0126 µM
AGUUAGCGAGGAUAUACAUGAGGAUCACCCAUGUGAGAGAAAAAAGUGAGAAAUAAAAGUAGAAGGCGCUAACA [Mat - Exclusion 3 - Eli mod - D69] | 0.0389 µM | 0.361 µM
